From patent US20230183336A1 (MODMAB THERAPEUTICS, published 2023)

Molecular target: T1, recombinant human LRP6-Fc chimera (human, UniProt O75581 20-1370)
T1 construct: extracellular domain; also called ECD of human LRP6; not shown: Fc part of the chimera
T1 sequence (looked up): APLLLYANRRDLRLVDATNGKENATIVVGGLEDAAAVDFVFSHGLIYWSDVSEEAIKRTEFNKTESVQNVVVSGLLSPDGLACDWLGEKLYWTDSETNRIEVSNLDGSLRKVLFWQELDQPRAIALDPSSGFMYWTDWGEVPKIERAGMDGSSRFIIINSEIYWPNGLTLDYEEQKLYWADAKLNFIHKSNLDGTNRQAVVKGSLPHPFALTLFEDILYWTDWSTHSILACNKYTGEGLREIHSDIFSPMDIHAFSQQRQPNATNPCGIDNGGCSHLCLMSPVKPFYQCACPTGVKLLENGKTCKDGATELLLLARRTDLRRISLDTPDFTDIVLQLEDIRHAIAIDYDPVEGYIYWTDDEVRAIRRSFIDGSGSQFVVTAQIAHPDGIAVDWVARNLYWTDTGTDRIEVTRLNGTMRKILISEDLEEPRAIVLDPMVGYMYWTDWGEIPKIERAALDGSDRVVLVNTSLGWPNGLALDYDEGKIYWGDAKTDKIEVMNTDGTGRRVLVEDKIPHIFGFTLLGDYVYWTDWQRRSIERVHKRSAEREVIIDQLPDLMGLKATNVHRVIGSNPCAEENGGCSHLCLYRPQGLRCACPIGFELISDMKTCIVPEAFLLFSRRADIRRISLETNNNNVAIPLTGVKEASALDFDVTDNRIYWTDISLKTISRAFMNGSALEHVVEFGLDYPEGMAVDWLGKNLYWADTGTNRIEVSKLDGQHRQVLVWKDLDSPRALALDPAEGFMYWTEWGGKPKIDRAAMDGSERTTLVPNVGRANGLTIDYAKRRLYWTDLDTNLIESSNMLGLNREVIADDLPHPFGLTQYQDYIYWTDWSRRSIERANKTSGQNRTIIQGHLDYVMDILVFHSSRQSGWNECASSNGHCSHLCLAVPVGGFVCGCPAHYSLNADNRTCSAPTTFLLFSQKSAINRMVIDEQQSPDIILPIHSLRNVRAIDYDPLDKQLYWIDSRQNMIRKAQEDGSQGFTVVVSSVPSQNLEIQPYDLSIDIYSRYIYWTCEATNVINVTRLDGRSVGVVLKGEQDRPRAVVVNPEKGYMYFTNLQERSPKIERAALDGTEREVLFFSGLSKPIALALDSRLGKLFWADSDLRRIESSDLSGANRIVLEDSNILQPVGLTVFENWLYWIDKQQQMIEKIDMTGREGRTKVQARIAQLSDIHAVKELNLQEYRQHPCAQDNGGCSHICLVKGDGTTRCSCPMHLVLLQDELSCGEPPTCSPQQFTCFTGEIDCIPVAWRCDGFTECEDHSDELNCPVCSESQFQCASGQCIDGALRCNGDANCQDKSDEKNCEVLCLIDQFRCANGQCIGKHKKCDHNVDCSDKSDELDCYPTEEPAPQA
Experiment: multipoint competitive ELISA, IgG1; varied competitor printed as recombinant human LRP6-Fc chimera, while paragraph 283 says 'the recombinant antigen'
Source text: The full length IgG1s and the antibody fragments (Fabs) were purified and a single-point ELISA was done to determine the specificity of the antibodies. […] A multipoint competitive ELISA was used to determine the relative affinities of the antibodies to the recombinant antigen.
Table 3 reports the IC50 of LRP5 antibodies as determined by competitive ELISA. The log of the recombinant human LRP6-Fc chimera concentration (x-axis) was plotted against the OD450 reading of the antibody (y-axis). The IC50 was determined by non-linear regression analysis.

B1: LRP5-H5 (antibody, V domains shown)
VH: EVQLVESGGGLVQPGGSLRLSCAASGFNLSYSSIHWVRQAPGKGLEWVASISSSYGSTSYADSVKGRFTISADTSKNTAYLQMNSLRAEDTAVYYCARGYWAIDYWGQGTLVTVSS
VL: DIQMTQSPSSLSASVGDRVTITCRASQSVSSAVAWYQQKPGKAPKLLIYSASSLYSGVPSRFSGSRSGTDFTLTISSLQPEDFATYYCQQPVGHYGYPITFGQGTKVEIKR
notes: Fab-phage in the screen
Q: How did the IC50 turn out when B1 was run?
A: The IC50 was 4.44 nM.
